According to patent US20140087995A1 (published 2014):
Numbered stars: 1 amine (or outer) side, 2 acyl side, 3 side chain; on linkers, the order of the positions; unused ones are H or OH. Bridge positions count the residues as written; N and C are the ends. Side chains are listed from the residue outwards. Ends that are not written are not given here. * marks the point of attachment. C20 diacid = O=C(O)CCCCCCCCCCCCCCCCCCC(=O)*; γGlu = O=C(O)[C@H](CCC(=O)[*:2])N[*:1]; AEEA = NCCOCCOCC(=O)O

T1: rat amylin receptor (rat calcitonin receptor + rat RAMP 3) (rat, UniProt P32214 25-516; Q9JJ73 23-147)
T1 construct: whole, on cells; membranes of transiently transfected BHK tk'ts 13 cells (Assay VI); also called rAmylin-R; rat amylin 3(a) receptor
T1 sequence (looked up) 1: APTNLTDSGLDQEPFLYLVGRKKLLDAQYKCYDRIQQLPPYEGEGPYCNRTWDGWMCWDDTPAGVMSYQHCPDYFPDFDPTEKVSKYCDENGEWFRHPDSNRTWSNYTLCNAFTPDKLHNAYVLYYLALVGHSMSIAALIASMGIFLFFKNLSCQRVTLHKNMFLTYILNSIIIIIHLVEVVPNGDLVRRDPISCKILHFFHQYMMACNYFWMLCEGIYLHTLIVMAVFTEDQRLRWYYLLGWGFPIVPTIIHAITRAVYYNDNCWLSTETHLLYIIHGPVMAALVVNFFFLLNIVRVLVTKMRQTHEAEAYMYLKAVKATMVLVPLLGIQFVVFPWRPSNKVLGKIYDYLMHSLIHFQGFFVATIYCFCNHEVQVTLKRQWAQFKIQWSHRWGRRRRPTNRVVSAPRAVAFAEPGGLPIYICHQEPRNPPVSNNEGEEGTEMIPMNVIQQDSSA
T1 sequence (looked up) 2: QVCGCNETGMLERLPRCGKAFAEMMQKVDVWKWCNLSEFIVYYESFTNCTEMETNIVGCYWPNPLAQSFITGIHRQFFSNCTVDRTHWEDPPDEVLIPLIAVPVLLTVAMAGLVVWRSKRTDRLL

T2: rat calcitonin receptor (rat, UniProt P32214 25-516)
T2 construct: whole, on cells; membranes of transiently transfected BHK tk'ts 13 cells (Assay VIII); also called rCTR; rat calcitonin (a) receptor
T2 sequence (looked up): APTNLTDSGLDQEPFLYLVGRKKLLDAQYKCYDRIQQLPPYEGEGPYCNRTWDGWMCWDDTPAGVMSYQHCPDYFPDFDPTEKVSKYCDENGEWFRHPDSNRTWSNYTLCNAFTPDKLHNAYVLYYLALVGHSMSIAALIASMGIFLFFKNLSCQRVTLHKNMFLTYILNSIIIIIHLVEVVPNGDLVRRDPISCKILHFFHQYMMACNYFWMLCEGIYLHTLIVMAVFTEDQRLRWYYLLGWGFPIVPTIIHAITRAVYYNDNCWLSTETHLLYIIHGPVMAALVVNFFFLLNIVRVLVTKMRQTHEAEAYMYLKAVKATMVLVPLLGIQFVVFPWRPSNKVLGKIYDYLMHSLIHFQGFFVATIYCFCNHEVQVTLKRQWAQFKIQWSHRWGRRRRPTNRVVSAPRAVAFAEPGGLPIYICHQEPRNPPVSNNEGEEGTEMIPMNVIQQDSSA

T3: human calcitonin receptor (human, UniProt P30988 25-474)
T3 construct: whole, on cells; membranes of stably transfected BHK cells (Assay VII); also called hCTR; hCT
T3 sequence (looked up): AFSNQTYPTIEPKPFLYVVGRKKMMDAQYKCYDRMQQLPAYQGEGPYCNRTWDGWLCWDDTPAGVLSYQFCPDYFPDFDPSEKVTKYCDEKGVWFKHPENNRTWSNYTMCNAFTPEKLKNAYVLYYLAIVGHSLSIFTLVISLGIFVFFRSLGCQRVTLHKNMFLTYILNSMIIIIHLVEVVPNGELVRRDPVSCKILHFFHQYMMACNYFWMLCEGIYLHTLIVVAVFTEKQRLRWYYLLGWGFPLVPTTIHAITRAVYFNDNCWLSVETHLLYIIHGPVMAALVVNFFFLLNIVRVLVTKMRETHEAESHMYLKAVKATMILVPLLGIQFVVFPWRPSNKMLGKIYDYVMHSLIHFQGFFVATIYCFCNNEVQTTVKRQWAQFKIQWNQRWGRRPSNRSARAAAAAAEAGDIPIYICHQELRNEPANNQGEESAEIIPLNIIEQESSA


Legend:
[1] = target: T1, rat amylin receptor (rat calcitonin …); assay: SPA competition with 125I-rat amylin, membranes of BHK cells with rat calcitonin receptor + rat RAMP3 (Assay VI)
[2] = target: T2, rat calcitonin receptor; assay: SPA competition with 125I-calcitonin, membranes of BHK cells with rat calcitonin receptor (Assay VIII)
[3] = target: T2, rat calcitonin receptor; assay: IC50 on rat calcitonin receptor divided by IC50 on rat amylin receptor (SPA competition)
[4] = target: T3, human calcitonin receptor; assay: IC50 on human calcitonin receptor divided by IC50 on human amylin receptor (SPA competition)
Experimental: The resulting pellet was resuspended, homogenized and centrifuged (20.000 rpm, 15 min) in a buffer containing 20 mM Na-HEPES and 0.1 mM EDTA (pH 7.4, buffer 2). The resulting pellet was resuspended in buffer 2 and protein concentration was measured (BCA protein Assay, Pierce). The homogenate was kept cold during the whole procedure. The membranes were kept at −80° C. until use. The assay was performed in a 384 well Optiplate (PerkinElmer) in a total volume of 40 ul. Membranes were mixed with SPA beads. Final concentration of membranes 35 ng/μL final and SPA beads was 0.05 mg/well. Test-compounds were dissolved in DMSO and further diluted in assay buffer (50 mM Hepes, pH 7.4, 1 mM CaCl2, 5 mM MgCl₂, 0.1% OA and 0.02% Tween20). […] The final mixture was incubated with shaking at 400 rpm for 120 min at 25° C. prior to centrifugation (1500 rpm, 10 min). Samples were analyzed on TopCounter™ (Packard). The IC₅₀ was calculated using (one site binding competition analysis) GraphPad Prism5 as a measure of receptor affinity.
Membranes were prepared in the following way; the cells were rinsed with PBS and incubated with Versene for approximately 5 min before harvesting. The cells were flushed with PBS and the cell-suspension was centrifuged for 5 min at 1000 rpm. Cells were homogenized (Ultrathurrax) in a buffer containing 20 mM Na-HEPES and 10 mM EDTA (pH 7.4) and centrifuged at 20.000 rpm for 15 min. The resulting pellet was resuspended, homogenized and centrifuged (20.000 rpm, 15 min) in a buffer containing 20 mM Na-HEPES and 0.1 mM EDTA (pH 7.4, buffer 2). The resulting pellet was resuspended in buffer 2 and protein concentration was measured (BCA protein Assay, Pierce). The homogenate was kept cold during the whole procedure. The membranes were kept at −80° C. until use. Assay was performed in a 384 well Optiplate (PerkinElmer) in a total volume of 40 ul. Membranes were mixed with SPA beads.

| Binder | IC50 [1] | IC50 [2] | Ratio rCT/rAmylin binding [3] | Ratio hCT/hAmylin binding [4] |
| --- | --- | --- | --- | --- |
| KCNTATCATQRLANFLRHSSPNFGAIPSSTNVGSKTY (C20 diacid-gGlu on the alpha amino group of the N-terminal residue (Lys 1); disulfide bridge between the two Cys residues; C-terminal amide, analogue of human amylin; also called compound 34) [N^α1-[(4S)-4-carboxy-4-(19-carboxynonadecanoylamino)butanoyl]-[Arg17,Pro21,Pro27,Lys35]-h-amylin] | 1.72 nM | 89.2 nM | 52 | 64.4 |
| {C20 diacid-γGlu}-KCNTATCATQRLAEFLRHSSPNFGAPLSSTNVGSNTY-NH2 (disulfide 2-7 (inferred), analogue of human amylin; also called compound 7) [N^α1-[(4S)-4-carboxy-4-(19-carboxynonadecanoylamino)butanoyl]-[Glu14,Arg17,Pro21,Pro26]-h-amylin] | 1.12 nM | 47.2 nM | 42 | 16.5 |
| {C20 diacid-γGlu}-KCNTATCATQRLAEFLRHSSPNFGAIPSSTNVGPNTY-NH2 (disulfide 2-7 (inferred), analogue of human amylin; also called compound 32) | 0.176 nM | 5.98 nM | 34 | 10.9 |
| {C20 diacid-γGlu}-KCNTATCATQRLANFLRHSSPNFGAIPSSTPVGSETY-NH2 (disulfide 2-7 (inferred), analogue of human amylin; also called compound 28) | 1.22 nM | 54.9 nM | 44.9 | 20.5 |
| {C20 diacid-γGlu}-KCNTATCATQRLAEFLRHSSPNFGAIPSSTPVGSNTY-NH2 (disulfide 2-7 (inferred), analogue of human amylin; also called compound 31) | 0.619 nM | 26.5 nM | 42.8 | 16 |
| {C20 diacid-γGlu}-KCNTATCATQRLAHFLRHSSPNFGAIPSSTNVGSETY-NH2 (disulfide 2-7 (inferred), analogue of human amylin; also called compound 30) | 3.14 nM | 114 nM | 36.1 | 23.6 |
| K([AEEA-γGlu-C20 diacid])CNTATCATQRLANFLRHSSPNFGAIPSSTNVGPNTY-NH2 (disulfide 2-7 (inferred), analogue of human amylin; also called compound 50) | 0.069 nM | 5.63 nM | 81.7 | 36 |
| K([AEEA-AEEA-γGlu-C20 diacid])CNTATCATQRLANFLRHSSPNFGAIPSSTNVGSETY-NH2 (disulfide 2-7 (inferred), analogue of human amylin; also called compound 25) | 3.48 nM | 131 nM | 37.7 | 56.5 |
| K([AEEA-γGlu-C20 diacid])CNTATCATQRLANFLRHSSPNFGAIPSSTPVGSNTY-NH2 (disulfide 2-7 (inferred), analogue of human amylin; also called compound 49) | 1.08 nM | 51.4 nM | 47.7 | 10.8 |
| {C20 diacid-γGlu}-KCNTATCATQRLAEFLRHSSPNFGAIPSSTNVGSRTY-NH2 (disulfide 2-7 (inferred), analogue of human amylin; also called compound 16) | 1.21 nM | 55.2 nM | 45.6 | 19.1 |
| K([AEEA-γGlu-C20 diacid])CNTATCATQRLANFLRHSSPNFGAIPSSTNVGSETY-NH2 (disulfide 2-7 (inferred), analogue of human amylin; also called compound 26) | 0.491 nM | 152 nM | 309 | 47.5 |
| {C20 diacid-γGlu}-KCNTATCATQRLAEFLRHSSPNFGAIPSSTNVGSETY-NH2 (disulfide 2-7 (inferred), analogue of human amylin; the name is printed with N^α1 twice; also called compound 22) | 2.19 nM | 62.5 nM | 28.5 | 12.3 |
| {C20 diacid-γGlu}-KCNTATCATQRLANFLRHSSPNFGAIPSSTNVGPETY-NH2 (disulfide 2-7 (inferred), analogue of human amylin; also called compound 29) | 0.322 nM | 21.6 nM | 67 | 13.9 |
| {C20 diacid-γGlu}-KCNTATCATQRLAEFLRHSSPNFGAIPSSTNVGHNTY-NH2 (disulfide 2-7 (inferred), analogue of human amylin; also called compound 17) | 2.71 nM | 97.2 nM | 35.9 | 12.5 |
